In article PMC8569915 (ChemSusChem, 2021):

Target: the molecule itself
Test: SEC

## Ac-GIAALEQKCAACEEKNAALEWKIAALEKKG-NH2 (cysteine pairing not given here) [[2SCC-(I9CL12C)2]]
  stoichiometry N: 2
